# Experimental data published in patent publication US20190309069A1 (SHANGHAI HENGRUI PHARMACEUTICAL, published 2019).
# How the values were obtained:
# [1] = target: T1, recombinant PD-1 extracellular domain Fc fusion protein (PD-1 Fc) (human, biotin label (sites not given) in the ELISA binding assay; unlabelled when coated in the ligand blocking assay); experiment: ELISA as in Example 2, biotinylated PD-1 Fc captured on avidin
# T1 construct: also called human PD-1Fc; human PD-1
# Description: The PD-1 antibody blocks signaling pathway of PD-1 and its ligand by binding to PD-1 extracellular domain. In vitro ELISA assay is used to detect the binding property of the PD-1 antibody. Biotinylated PD-1 extracellular domain FC fusion protein (PD-1 FC) is coated onto 96-well plates by binding to neutralization avidin. Signal intensity after the addition of the antibody is used to determine the binding property of the antibody and PD-1.
# Neutralization avidin (binding to biotin) was diluted to 1 μl/ml with PBS buffer, pipetted into a 96-well plate with at 100 μl/well and standed for 16 h-20 h at 4° C. The 96-well plate was washed once with PBST (PH7.4 PBS, containing 0.05% tweeen20) after PBS buffer was removed, then the plate was incubated and blocked for 1 h at room temperature with addition of 120 μl/well PBST/1% milk. After removal of the blocking solution, the plate was washed with PBST buffer, followed by addition of 1 μg/ml biotin-labeled PD1-FC which was diluted by PBST/1% milk, and incubated for 1 h at room temperature. After removal of the blocking solution, the plate was washed with PBST buffer for 3 times, followed by addition of the test PD-1 antibody which was diluted to a suitable concentration by PBST/1% milk, and incubated for 1.5 h at room temperature. After removal of reaction system, the plate was washed for 3 times with PBST buffer, followed by addition of 100 μl/well HRP-labeled anti-murine secondary antibody (The Jackson Laboratory) which was diluted by PBST/1% milk, and incubated for 1 h at room temperature. After being washed with PBST for three times, the plate was added with 100 μl/well TMB, and incubated for 5-10 min at room temperature. Then the reaction was terminated with addition of 100μ/well 1M H₂SO₄. The absorbance value at 450 nm was read on NOVOStar microplate reader; the ELISA binding EC₅₀ value was calculated.
# (§1) Humanized antibodies were subjected to ELISA binding assay (method is the same as that of Example 2), ligand binding blocking assay (method is the same as that of Example 2), and affinity kinetics experiment (method is the same as that of Example 5) in vitro.
# [2] = target: T2, PD-1 His protein (Beijing Sino Biological Inc.) (UniProt Q15116 25-167, limits assumed); experiment: Biacore SPR as in Example 5, PD-1 His as analyte
# T2 construct: Bought reagent, analyte in the Biacore assay; not shown: His tag
# Description: According to the instruction of a kit provided by Biacore, the test PD-1 antibody of the present invention was covalently linked to CM5 (GE) chip using a standard amino coupling method. Then a series of gradient concentrations of PD-1 His protein (Beijing Sino Biological Inc.), which were diluted in the same buffer, were loaded into each cycle successively. After that, the samples were regenerated with regenerated reagent in the kit. The antigen-antibody binding kinetics was tracked for 3 minutes and the dissociation kinetics was tracked for 10 minutes. The data obtained was analyzed by GE's BIAevaluation software using 1:1 (Langmuir) binding model.
# as §1
# [3] = target: T1, recombinant PD-1 extracellular domain …; experiment: ligand binding blocking ELISA as in Example 2, competitor biotin-labeled PD-L1
# Description: In this experiment, a 96-well plate was coated with a PD-1 protein with the extracellular domain fused with FC (PD-1-FC), and incubated with the test PD-1 antibody; later biotin-labeled PD-L1 was added for incubation. After washing the plate, the binding amount of biotin-labeled PD-L1 was detected; the blocking IC₅₀ value of PD-1 antibody for ligand PD-L1 binding was calculated.
# PD-1-FC was diluted to 1 μg/ml with PH 9.6 CB buffer (1.59 g Na₂CO₃ and 2.93 g NaHCO₃ were dissolved in 1 L of distilled water), pipetted into a 96-well plate at 100 μl/well and standed for 16 h-20 h at 4° C. The 96-well plate was washed once with PBST (PH7.4 PBS, containing 0.05% tweeen20) after PBS buffer was removed, then the plate was incubated and blocked for 1 h at room temperature with 120 μl/well PBST/1% milk. After removal of the blocking solution, the plate was washed with PBST buffer once, followed by addition of 90 μl of test PD-1 antibody which was diluted to a suitable concentration with sample diluents (PH7.4 PBS containing 5% BSA, 0.05% Tween20), and incubated for 1 h at 4° C. Then 10× concentrations of biotin-labeled PD-L1 (Beijing Sino Biological Inc.) (10 μg/ml) was added to the plate at 10 μl/well, oscillated and mixed by an oscillator, and incubated at 37° C. for 1 h. After removal of the reaction system, the plate was washed for 6 times with PBST buffer, followed by addition of 100 ul/well Streptavidin-Peroxidase Polymer which was diluted by PBST at a ratio of 1:400, and incubated under oscillation for 50 min at room temperature. After being washed with PBST for 6 times, the plate was added with 100 μl/well TMB, and incubated for 5-10 min at room temperature. Then the reaction was terminated with addition of 100 μl/well 1M H₂SO₄. The absorbance value at 450 nm was read on the NOVOStar microplate reader; the blocking IC₅₀ value of PD-1 for ligand PD-L1 binding was calculated.
# as §1
EC50 [1] [nM],Kd [2] [nM],IC50 [3] [nM],Binder
0.11,2.79,1.27,"humanized antibody H005-1 (antibody, human IgG4 S228P, kappa, F234A L235A, V domains shown, CDR graft of mAb005 on IgHV3-7/JH6 and IGKV1-39/JK4, IgG4 constant region; expressed in HEK293 cells; also called PD-1 antibody H005-1) VH: EVQLVESGGGLVQPGGSLRLSCAASGFTFSSYMMSWVRQAPGKGLEWVATISGGGANTYYPDSVKGRFTISRDNAKNSLYLQMNSLRAEDTAVYYCARQLYYFDYWGQGTTVTVSS VL: DIQMTQSPSSLSASVGDRVTITCLASQTIGTWLTWYQQKPGKAPKLLIYTATSLADGVPSRFSGSGSGTDFTLTISSLQPEDFATYYCQQVYSIPWTFGGGTKVEIKR"
0.14,2.98,1.27,"humanized antibody H005-2 (antibody, human IgG4 S228P, kappa, F234A L235A, name in Kabat numbering, V domains shown, Back-mutated variant of H005-1, IgG4 constant region) VH: EVQLVESGGGLVQPGGSLRLSCAASGFTFSSYMMSWVRQAPGKRLEWVATISGGGANTYYPDSVKGRFTISRDNAKNSLYLQMNSLRAEDTAVYYCARQLYYFDYWGQGTTVTVSS VL: DIQMTQSPSSLSASVGDRVTITCLASQTIGTWLTWYQQKPGKAPKLLIYTATSLADGVPSRFSGSGSGTDFTLTISSLQPEDFATYYCQQVYSIPWTFGGGTKVEIKR"
